Two molecules from patent publication US7238711 can be followed below.

No end group written: not given here.

Experiment [1] concerns the target T1, Duffy Antigen Receptor for Chemokines (DARC) (human), Q16570.
T1 chain: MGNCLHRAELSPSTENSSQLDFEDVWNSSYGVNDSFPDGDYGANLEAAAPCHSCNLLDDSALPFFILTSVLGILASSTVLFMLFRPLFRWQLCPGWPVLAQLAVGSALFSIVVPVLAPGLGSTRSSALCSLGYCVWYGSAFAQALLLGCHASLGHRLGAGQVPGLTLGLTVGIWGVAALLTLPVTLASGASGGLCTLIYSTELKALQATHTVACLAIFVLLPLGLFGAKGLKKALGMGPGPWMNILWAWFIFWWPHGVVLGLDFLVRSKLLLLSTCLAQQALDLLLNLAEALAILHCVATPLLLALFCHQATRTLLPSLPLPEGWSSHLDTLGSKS
Description: DARC binding.

Experiment [2] has as its target Duffy Antigen Receptor for Chemokines (DARC) (human) (UniProt Q16570). Kind of experiment: Duffy binding.
For experiment [3] the target is unchanged. Description: DARC binding, Table 18.
The target is the same in experiment [4]. Kind of experiment: Duffy binding, against the LFL peptide.
Another experiment deals with CCR5 (human) (UniProt P51681). Kind of experiment: not stated (printed as affinity constant).
The next experiment addresses CXCR4 (human) (UniProt P61073). Description: not stated (printed as affinity constant).

CCR5 (human), sequence (P51681 whole entry): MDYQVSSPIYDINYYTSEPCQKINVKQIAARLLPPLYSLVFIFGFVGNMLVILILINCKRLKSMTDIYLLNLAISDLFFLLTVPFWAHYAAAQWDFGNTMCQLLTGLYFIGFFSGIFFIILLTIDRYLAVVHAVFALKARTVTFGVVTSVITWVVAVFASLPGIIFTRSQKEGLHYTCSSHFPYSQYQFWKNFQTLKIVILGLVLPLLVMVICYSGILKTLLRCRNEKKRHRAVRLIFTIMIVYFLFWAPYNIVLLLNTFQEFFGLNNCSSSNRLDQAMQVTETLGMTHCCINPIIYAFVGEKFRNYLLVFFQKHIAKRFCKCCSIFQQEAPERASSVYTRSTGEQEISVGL

The molecule SYRRITSSKSPKEAV (not fully specified) [Ser10 variant of peptide 2(1-15)[MCP-1]] yielded a DARC binding in experiment [1] of 20 to 100 µM.

The IC50 is the concentration needed to halve the response being measured. Lower therefore signals greater potency in that assay. For orientation: Kd means the free concentration of one partner at which half of the binding sites on the other are occupied at equilibrium, for simple one-to-one binding. Higher therefore signals lower affinity. In turn, VAEKPCKSSTIRRYS (not fully specified (some residues)) [LRD peptide 2(1-15)[MCP-1]] displayed an IC50 with chemokine receptors of 3 µM. Besides, the Kd in experiment [2] was 25 µM; in the experiment with CCR5 (human), less than 0.1 µM; with CXCR4 (human), less than 0.1 µM. In addition, the DARC binding in experiment [3] came to 18 µM. The fold decrease in Duffy binding against LFL in experiment [4] worked out at 100 fold.
